Reference: patent US20240390418A1 (MINERVA BIOTECHNOLOGIES, published 2024)
Changes are numbered by the printed parent chain.

T1: N-10 peptide
T1 construct: also called PSMGFR N-10; PSMGFR minus 10 amino acids from the N-terminus
T1 peptide: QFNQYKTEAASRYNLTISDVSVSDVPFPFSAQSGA

T2: C-10 peptide
T2 construct: also called PSMGFR C-10; PSMGFR minus 10 amino acids from the C-terminus
T2 peptide: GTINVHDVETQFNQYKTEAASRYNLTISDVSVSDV

T3: NME7AB (Homo sapiens (Human), UniProt Q9Y5B8 92-376)
T3 construct: NME7A in the text appears to be NME7AB; also called NM23-H7; NME7A
T3 sequence: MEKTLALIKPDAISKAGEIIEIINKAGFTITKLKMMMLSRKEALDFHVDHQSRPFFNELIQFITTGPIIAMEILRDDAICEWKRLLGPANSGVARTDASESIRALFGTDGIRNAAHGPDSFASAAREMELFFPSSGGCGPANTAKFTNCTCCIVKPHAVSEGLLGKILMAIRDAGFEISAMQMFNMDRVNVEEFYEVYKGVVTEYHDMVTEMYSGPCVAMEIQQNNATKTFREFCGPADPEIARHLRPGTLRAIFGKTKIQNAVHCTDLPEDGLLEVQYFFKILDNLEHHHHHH

T4: N+9/C-9 peptide
T4 peptide: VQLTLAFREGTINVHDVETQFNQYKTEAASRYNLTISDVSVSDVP

T5: N-19 peptide
T5 peptide: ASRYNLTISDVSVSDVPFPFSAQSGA

T6: N-26 peptide
T6 peptide: ISDVSVSDVPFPFSAQSGA

T7: N-30 peptide
T7 peptide: SVSDVPFPFSAQSGA

T8: N-10/C-5 peptide
T8 peptide: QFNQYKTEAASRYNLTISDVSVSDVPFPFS

T9: N-19/C-5 peptide
T9 peptide: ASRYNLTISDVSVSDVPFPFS

B1: monoclonal antibody B9 (antibody, V domains shown)
VH: EVQVVESGGDLVKPGGSLKLSCAASGFTFSRYGMSWVRQTPDKRLEWVATISSGGTYIYYPDSVKGRFTISRDNAKNTLYLQMSSLKSEDTAMYYCARDNYGSSYDYAMDYWGQGTSVTVSS
VL: QIVLTQSPAIMSASPGEEVTLTCSASSSVSYMHWFQQRPGTSPKLWIYTTSNLASGVPARFSGSGSGTSYSLTISRMEAEDAATYYCQQRSSYPFTFGSGTKLEIK
notes: Raised against PSMGFR
B2: humanized MNC2 scFv (scFv, V domains shown)
VH: EVQLVESGGGLVKPGGSLRLSCAASGFTFSGYAMSWVRQAPGKGLEWVSTISSGGTYIYYPDSVKGRFTISRDNAKNSLYLQMNSLRAEDTAVYYCARLGGDNYYEYFDVWGKGTTVTVSS
VL: DIVLTQSPASLAVSPGQRATITCRASKSVSTSGYSYMHWYQQKPGQPPKLLIYLASNLESGVPARFSGSGSGTDFTLTINPVEANDTANYYCQHSRELPFTFGGGTKVEIKR
notes: also called huMNC2scFv; huMNC2 scFv
B3: monoclonal antibody 3C2B1 (antibody, V domains shown)
VH: EVMLVESGGGLVKPGGSLKLSCAASGITFSTYTMSWVRQTPEKRLEWVATISTGGDKTYYSDSVKGRFTISRDNAKNNLYLQMSSLRSEDTALYYCARGTTAMYYYAMDYWGQGTSVTVSS
VL: DIVLTQSPASLAVSLGQRATISCRASKSISTSDYNYIHWYQQKPGQPPKLLIYLASNLESGVPARFSGSGSGTDFTLNIHPVEEEDAATYYCQHSRELPLTFGAGTKLELK
notes: Raised against PSMGFR; also called MN3C2B1; anti-PSMGFR antibody 3C2B1
B4: monoclonal antibody B12 (antibody, V domains shown)
VH: QAQLKESGPGLVAPSQSLSITCTVSGFSLTSYGVHWVRQPPGKGLEWLGVIWPGGSTNYNSTLMSRMRIIKDNSKSQVFLKMNSLQIDDTAMYYCARDRTPRVGAWFAYWGQGTLVTVSA
VL: IIVLTQSPASLAVSLGQRATISCRASESVATYGNNFMQWYQQKPGQPPKLLIYLASTLDSGVPARFSGSGSRTDFTLTIDPVEADDAATYYCQQNNEDPPTFGGGTKLEIK
notes: Raised against PSMGFR
B5: monoclonal antibody 8C7F3 (antibody, V domains shown)
VH: EVMLVESGGGLVKPGGSLKLSCAASGFTFSTYAMSWVRQTPEKRLEWVAAISNGGGYTYYPDSLKGRFTISRDNAKNTLYLQMSSLRSEDTATYYCARRYYDHYFDYWGQGTALTVSS
VL: B4 VL
notes: Raised against PSMGFR
B6: humanized MNC3 scFv-Fc (Fc fusion)
VH: QVQLVQSGAEVKKPGASVKVSCKASGYTFTDYAMNWVRQAPGQGLEWMGVISTFSGNTNFNQKFKGRVTMTTDTSTSTAYMELRSLRSDDTAVYYCARSDYYGPYFDYWGQGTTLTVSS
VL: DIVMTQTPLSLSVTPGQPASISCRSSQTIVHSNGNTYLEWYLQKPGQSPQLLIYKVSNRFSGVPDRFSGSGSGTDFTLKISRVEAEDVGVYYCFQGSHVPFTFGGGTKVEIKRT
B7: PSMGFR peptide (peptide)
peptide: GTINVHDVETQFNQYKTEAASRYNLTISDVSVSDVPFPFSAQSGA
notes: also called MUC1* peptide
B8: monoclonal antibody 20A10 (antibody, V domains shown)
VH: EVMLVESGGGLVKPGGSLKLSCAASGFTFSTYAMSWIRQTPEKRLEWVASIGRAGSTYYSDSVKGRFTISRDNVRNILYLQMSSLRSEDTAMYYCARGPIYNDYDEFAYWGQGTLVTVSA
VL: NIMMTQSPSSLAVSAGEKVTMSCKSSQSVLYSSNQKNYLAWYQQKPGQSPKLLIYWASTRESGVPDRFTGSGSGTDFTLTISSVQAEDLAVYYCHQYLSSLTFGAGTKLELK
notes: Raised against PSMGFR; also called MN20A10; anti-PSMGFR antibody 20A10
B9: monoclonal antibody B2 (antibody, V domains shown)
VH: EVVLVESGGGLVEPGGSLKLSCVASGFAFSTFAMSWIRQTPEKRLEWVAAISNGGGYTYYPDTLKGRFSISRDNAKNTLYLQMSSLRSEDTAVYYCARRYYDLYFDLWGRGTSLIVSS
VL: DILMTQTPLSLPVSLGDQASISCRSSQNIVHSNGNTYLEWYLQKPGQSPKLLIYKVSNRFSGVPDRFSGSGSGTDFTLKISRVEAEDLGVYYCFQDSHVPLTFGAGTRLELK
notes: Raised against PSMGFR
B10: monoclonal antibody 17H6 (antibody, V domains shown)
VH: EVKLVESGGGLVQPGGSLRLSCATSGFTFTDYYMSWVRQPPRKALEWLGFIRNKANGYTAEYSASVKGRFTISRDVSQNLLYLQMNILRAEDSATYYCAKDYYGSNPAWFAYWGQGTLVTVSA
VL: B9 VL with N28S, N33S, Y37F, T74I, D96G, L101F, A105S, R108K, L111I
notes: Raised against the N+9/C-9 peptide; also called N+9/C-9 antibody 17H6
B11: monoclonal antibody B7 (antibody, V domains shown)
VH: B1 VH
VL: B9 VL with I2V, N28T, R108K
notes: Raised against PSMGFR
B12: monoclonal antibody 28F9 (antibody, V domains shown)
VH: QVQLQQPGAELVQPGASVKLSCKASGYTFTGYFLYWVKQRPGHGLEWIGGIHPSNGDTDFNEKFKNKATLTVDISSSTAYMQLSSLTSEDSAVYYCTLLIGVYWGQGTTLTVSS
VL: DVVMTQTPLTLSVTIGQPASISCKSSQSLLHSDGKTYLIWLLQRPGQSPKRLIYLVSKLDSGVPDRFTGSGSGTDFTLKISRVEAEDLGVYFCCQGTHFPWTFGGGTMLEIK
notes: Raised against PSMGFR; also called MN28F9; anti-PSMGFR antibody 28F9
B13: monoclonal antibody 18G12 (antibody, V domains shown)
VH: B12 VH with P7S, Q13K, H43Q, H52N, S54D, D57G, T58I, K65R, I74K, V102N
VL: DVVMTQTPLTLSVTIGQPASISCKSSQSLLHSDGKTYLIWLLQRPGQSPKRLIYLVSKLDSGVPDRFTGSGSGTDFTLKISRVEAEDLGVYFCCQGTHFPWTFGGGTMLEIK
notes: Raised against PSMGFR; also called MN18G12; anti-PSMGFR antibody 18G12

Assays:
PSMGFR peptide [1] = target: B7; test: ELISA, peptide on plate (FIG. 201A)
Procedure: (§1) FIG. 201A-201C show graphs of ELISA assays to determine the binding of another set of antibodies generated by immunizing animals with the PSMGFR peptide. […] F3, B12, B2, B7, B9, 8C7F3 and H11 all bound to the PSMGFR peptide and to the N-10 peptide.
(§2) This same ELISA assay was performed on the antibodies of the invention (FIGS. 64-66 and FIG. 201). Note that only 20A10 exactly matches the binding profile of MNC2 and MNE6. 25E6, 28F9 and 18G12 are all able to bind to the N-10 peptide. 18B4 is the only antibody raised against the PSMGFR peptide that requires the 10 most N-terminal amino acids of the peptide. The color of the bars for each antibody in the ELISA graph are color coded to match the deductive cognate sequence, or a portion thereof, of that antibody. In addition, another set of antibodies was assayed by ELISA (FIG. 201). Of this set, B12, B2, B7, B9, 8C7F3, and H11 bound to the PSMGFR peptide, bound to the N-10 peptide, but not to the C-10 peptide (FIG. 201). Although these antibodies were raised against the N+20/C-27 peptide, all but one, 45C11, still bind to the PSMGFR peptide, albeit at the N-terminal portion of PSMGFR.

N-10 peptide [2] = target: T1, N-10 peptide; test: ELISA, peptide on plate (FIG. 201B)
Procedure: as §1, §2

C-10 peptide [3] = target: T2, C-10 peptide; test: ELISA, peptide on plate (FIG. 201C)
Procedure: as §1, §2

PSMGFR peptide [4] = target: B7; test: ELISA, PSMGFR peptide on plate (FIG. 5)
Procedure: Humanized MNC2 scFv is then incubated with the surface, washed and detected according to standard methods.

C-10 peptide [5] = target: T2, C-10 peptide; test: peptide ELISA
PSMGFR peptide [6] = target: B7; test: peptide ELISA, told in tissue legend
N-10 peptide [7] = target: T1, N-10 peptide; test: peptide ELISA, told in tissue legend
PSMGFR peptide [8] = target: B7; test: ELISA, peptide on plate (FIG. 9)
N-10 peptide [9] = target: T1, N-10 peptide; test: ELISA, peptide on plate (FIG. 9)
C-10 peptide [10] = target: T2, C-10 peptide; test: ELISA, peptide on plate (FIG. 9)
NME7AB = target: T3, NME7AB; test: ELISA, peptide on plate (FIG. 2A)
Procedure: FIGS. 2A-2I show results of ELISA assays. MUC1* peptides PSMGFR, PSMGFR minus 10 amino acids from the N-terminus aka N-10, or PSMGFR minus 10 amino acids from the C-terminus, aka C-10 are immobilized on the plate and the following are assayed for binding: NME7-AB (FIG. 2A), MNC2 monoclonal antibody (FIG. 2B), MNE6 monoclonal antibody (FIG. 2C), or dimeric NME1 (FIG. 2D). […] MUC1* peptides PSMGFR minus 10 amino acids from the N-terminus aka N-10, or PSMGFR minus 10 amino acids from the C-terminus, aka C-10, are immobilized on the plate and the following are assayed for binding: MNC3 (FIG. 2E) and MNC8 (FIG. 2F).

C-10 peptide [11] = target: T2, C-10 peptide; test: ELISA, peptide on plate (FIG. 64)
N+9/C-9 peptide = target: T4, N+9/C-9 peptide; test: ELISA, peptide on plate (FIG. 64)
N-10 peptide [12] = target: T1, N-10 peptide; test: ELISA, peptide on plate (FIG. 69)
N-19 peptide = target: T5, N-19 peptide; test: ELISA, peptide on plate (FIG. 69)
N-26 peptide = target: T6, N-26 peptide; test: ELISA, peptide on plate (FIG. 69)
N-30 peptide = target: T7, N-30 peptide; test: ELISA, peptide on plate (FIG. 69)
N-10/C-5 peptide = target: T8, N-10/C-5 peptide; test: ELISA, peptide on plate (FIG. 69)
N-19/C-5 peptide = target: T9, N-19/C-5 peptide; test: ELISA, peptide on plate (FIG. 69)
N-10 peptide [13] = target: T1, N-10 peptide; test: ELISA, peptide on plate (FIG. 64)
PSMGFR peptide [14] = target: B7; test: peptide binding, told in Western blot legend

B1
binding result (PSMGFR peptide [1]): binds
binding result (N-10 peptide [2]): binds
binding result (C-10 peptide [3]): no binding

B2
EC50 (PSMGFR peptide [4]): ~333 nM

B3
binding result (C-10 peptide [5]): no binding
binding result (PSMGFR peptide [6]): binds
binding result (N-10 peptide [7]): binds

B4
binding result (PSMGFR peptide [1]): binds
binding result (N-10 peptide [2]): binds
binding result (C-10 peptide [3]): no binding

B5
binding result (PSMGFR peptide [1]): binds
binding result (N-10 peptide [2]): binds
binding result (C-10 peptide [3]): no binding

B6
binding result (PSMGFR peptide [8]): binds
binding result (N-10 peptide [9]): binds
binding result (C-10 peptide [10]): binds

B7
binding result (NME7AB): binds

B8
binding result (C-10 peptide [11]): no binding
binding result (N+9/C-9 peptide): no binding
binding result (PSMGFR peptide [6]): binds
binding result (N-10 peptide [7]): binds

B9
binding result (PSMGFR peptide [1]): binds
binding result (N-10 peptide [2]): binds
binding result (C-10 peptide [3]): no binding

B10
binding result (N-10 peptide [12]): no binding
binding result (N-19 peptide): no binding
binding result (N-26 peptide): no binding
binding result (N-30 peptide): no binding
binding result (N-10/C-5 peptide): no binding
binding result (N-19/C-5 peptide): no binding

B11
binding result (PSMGFR peptide [1]): binds
binding result (N-10 peptide [2]): binds
binding result (C-10 peptide [3]): no binding

B12
binding result (C-10 peptide [5]): binds
binding result (N-10 peptide [13]): binds
binding result (N+9/C-9 peptide): binds
binding result (PSMGFR peptide [14]): binds

B13
binding result (C-10 peptide [5]): binds
binding result (N-10 peptide [13]): binds
binding result (N+9/C-9 peptide): binds
binding result (PSMGFR peptide [14]): binds
